# According to patent publication US20240199745A1, “ANTI-EGFR ANTIBODY DRUG CONJUGATES” (priority 2016, published 2024):
# Where a chain is given by its changes, count along the chain named.
# B1: AbB-ZT (antibody, human IgG1, kappa, V domains shown)
# VH: EVQLQESGPGLVKPSQTLSLTCTVSGYSISNDFAWNWIRQPPGKGLEWMGYISYKGNTRYQPSLKSRITISRDTSKNQFFLKLNSVTAADTATYYCVTASRGFPWWGQGTLVTVSS
# VL: DIQMTQSPSSMSVSVGDRVTITCHSSQDINSNIGWLQQKPGKSFKGLIYHGTNLDDGVPSRFSGSGSGTDYTLTISSLQPEDFATYYCVQYAQFPWTFGGGTKLEIKR
# modifications: synthon ZT on reduced interchain cysteines; average DAR 1.4 per ADC
# B2: AbA-AAD (antibody, human IgG1, kappa, V domains shown)
# VH: B1 VH with N31R, K55N, W105Y
# VL: B1 VL
# modifications: synthon AAD on reduced interchain cysteines; average DAR 3.3 per ADC
# B3: AbK-SR (antibody, human IgG1, kappa, V domains shown)
# VH: B1 VH with N31R, K55N
# VL: B1 VL with N30T, S31Y, I33V, T52S, D56H, A92D, Q93D
# modifications: synthon SR on reduced interchain cysteines; average DAR 2.3 per ADC
# B4: AbK-ZT (antibody, human IgG1, kappa, V domains shown)
# VH: B1 VH with N31R, K55N
# VL: B1 VL with N30T, S31Y, I33V, T52S, D56H, A92D, Q93D
# modifications: synthon ZT on reduced interchain cysteines; average DAR 1.3 per ADC
# B5: AbB-CZ (antibody, human IgG1, kappa, V domains shown)
# VH: B1 VH
# VL: B1 VL
# modifications: synthon CZ on reduced interchain cysteines; average DAR 3.5 per ADC
# B6: AbB-XW (antibody, human IgG1, kappa, V domains shown)
# VH: B1 VH
# VL: B1 VL
# modifications: synthon XW on reduced interchain cysteines; average DAR 3.2 per ADC
# B7: AbA-AAA (antibody, human IgG1, kappa, V domains shown)
# VH: B1 VH with N31R, K55N, W105Y
# VL: B1 VL
# modifications: synthon AAA on reduced interchain cysteines; average DAR 2 per ADC
# B8: AbK-ZZ (antibody, human IgG1, kappa, V domains shown)
# VH: B1 VH with N31R, K55N
# VL: B1 VL with N30T, S31Y, I33V, T52S, D56H, A92D, Q93D
# modifications: synthon ZZ on reduced interchain cysteines; average DAR 1.9 per ADC
# B9: AbB-SR (antibody, human IgG1, kappa, V domains shown)
# VH: B1 VH
# VL: B1 VL
# modifications: synthon SR on reduced interchain cysteines; average DAR 2.1 per ADC
# B10: AbG-SE (antibody, human IgG1, kappa, V domains shown)
# VH: B1 VH with P41L, F103L, W105Y
# VL: B1 VL with N30T, S31Y, T52A, A92D, Q93E
# modifications: synthon SE on reduced interchain cysteines; average DAR 3.8 per ADC
# B11: AbG-SR (antibody, human IgG1, kappa, V domains shown)
# VH: B1 VH with P41L, F103L, W105Y
# VL: B1 VL with N30T, S31Y, T52A, A92D, Q93E
# modifications: synthon SR on reduced interchain cysteines; average DAR 2.8 per ADC
# B12: AbG-KZ (antibody, human IgG1, kappa, V domains shown)
# VH: B1 VH with P41L, F103L, W105Y
# VL: B1 VL with N30T, S31Y, T52A, A92D, Q93E
# modifications: synthon KZ on reduced interchain cysteines; average DAR 2.7 per ADC
# B13: AbK-YG (antibody, human IgG1, kappa, V domains shown)
# VH: B1 VH with N31R, K55N
# VL: B1 VL with N30T, S31Y, I33V, T52S, D56H, A92D, Q93D
# modifications: synthon YG on reduced interchain cysteines; average DAR 0.9 per ADC
# B14: AbB-YG (antibody, human IgG1, kappa, V domains shown)
# VH: B1 VH
# VL: B1 VL
# modifications: synthon YG on reduced interchain cysteines; average DAR 1.1 per ADC
# B15: AbG-ZT (antibody, human IgG1, kappa, V domains shown)
# VH: B1 VH with P41L, F103L, W105Y
# VL: B1 VL with N30T, S31Y, T52A, A92D, Q93E
# modifications: synthon ZT on reduced interchain cysteines; average DAR 1.6 per ADC
# B16: AbK-SE (antibody, human IgG1, kappa, V domains shown)
# VH: B1 VH with N31R, K55N
# VL: B1 VL with N30T, S31Y, I33V, T52S, D56H, A92D, Q93D
# modifications: synthon SE on reduced interchain cysteines; average DAR 2.7 per ADC
# B17: AbG-XW (antibody, human IgG1, kappa, V domains shown)
# VH: B1 VH with P41L, F103L, W105Y
# VL: B1 VL with N30T, S31Y, T52A, A92D, Q93E
# modifications: synthon XW on reduced interchain cysteines; average DAR 3.7 per ADC
# B18: AbG-ZZ (antibody, human IgG1, kappa, V domains shown)
# VH: B1 VH with P41L, F103L, W105Y
# VL: B1 VL with N30T, S31Y, T52A, A92D, Q93E
# modifications: synthon ZZ on reduced interchain cysteines; average DAR 1.4 per ADC
# B19: AbB-SE (antibody, human IgG1, kappa, V domains shown)
# VH: B1 VH
# VL: B1 VL
# modifications: synthon SE on reduced interchain cysteines; average DAR 2.2 per ADC
# B20: AbB-TX (antibody, human IgG1, kappa, V domains shown)
# VH: B1 VH
# VL: B1 VL
# modifications: synthon TX on reduced interchain cysteines; average DAR 2.2 per ADC
# B21: AbB-ZZ (antibody, human IgG1, kappa, V domains shown)
# VH: B1 VH
# VL: B1 VL
# modifications: synthon ZZ on reduced interchain cysteines; average DAR 1.1 per ADC
# B22: AbK-XW (antibody, human IgG1, kappa, V domains shown)
# VH: B1 VH with N31R, K55N
# VL: B1 VL with N30T, S31Y, I33V, T52S, D56H, A92D, Q93D
# modifications: synthon XW on reduced interchain cysteines; average DAR 2.8 per ADC
# B23: AbB-KZ (antibody, human IgG1, kappa, V domains shown)
# VH: B1 VH
# VL: B1 VL
# modifications: synthon KZ on reduced interchain cysteines; average DAR 1.9 per ADC
# B24: AbK-KZ (antibody, human IgG1, kappa, V domains shown)
# VH: B1 VH with N31R, K55N
# VL: B1 VL with N30T, S31Y, I33V, T52S, D56H, A92D, Q93D
# modifications: synthon KZ on reduced interchain cysteines; average DAR 2.3 per ADC
# B25: AbG-YG (antibody, human IgG1, kappa, V domains shown)
# VH: B1 VH with P41L, F103L, W105Y
# VL: B1 VL with N30T, S31Y, T52A, A92D, Q93E
# modifications: synthon YG on reduced interchain cysteines; average DAR 3.7 per ADC
# Target: human EGFR (huEGFR) over-expressed on mcl-1-/- mouse embryonic fibroblasts (human, UniProt P00533 25-1210)
# Test: cell-based or functional assay
row,Binder,huEGFR+ mcl-1-/- MEF EC50 [nM]
1,B1,8.9
2,B2,65
3,B3,8.9
4,B4,0.2
5,B5,5.9
6,B6,0.65
7,B7,220
8,B8,45
9,B9,7
10,B10,24
11,B11,7
12,B12,96
13,B13,37
14,B14,3.3
15,B15,33
16,B16,161
17,B17,19
18,B18,68
19,B19,39
20,B20,11
21,B21,7.4
22,B22,0.6
23,B23,55
24,B24,224
25,B25,1

# Target: EGFR on EGFR positive non-small cell lung cancer cells NCI-H1650 (UniProt P00533 25-1210)
# Test: cell-based or functional assay
Binder,H1650 CTG-3D EC50 [µg/mL],H1650 GFP Flourescence EC50 [µg/mL]
B1,0.26,0.64
B2,0.79,0.36
B3,1.74,1.36
B4,0.05,0.12
B5,1.27,0.88
B6,6.92,12.1
B7,0.65,0.98
B8,0.03,0.16
B9,0.62,2.1
B10,0.96,0.99
B11,1.31,1.38
B12,38.3,38.2
B13,12.3,10.4
B14,3.28,1.55
B15,0.1,0.08
B16,2.67,1.68
B17,> 40,> 40
B18,0.47,0.44
B19,0.59,2.18
B20,2.39,3.72
B21,0.52,0.61
B22,> 40,8.53
B23,16.5,37.7
B24,> 40,> 40
B25,1.24,0.63
